The record followed here is patent US20060239990A1 (published 2006).

In assay [1] the target is T1, GST-RB fusion protein (UniProt P06400 1-928).
T1 construct: not shown: glutathione S-transferase tag of the pGEX-6P vector (Amersham/Pharmacia)
T1 sequence (looked up): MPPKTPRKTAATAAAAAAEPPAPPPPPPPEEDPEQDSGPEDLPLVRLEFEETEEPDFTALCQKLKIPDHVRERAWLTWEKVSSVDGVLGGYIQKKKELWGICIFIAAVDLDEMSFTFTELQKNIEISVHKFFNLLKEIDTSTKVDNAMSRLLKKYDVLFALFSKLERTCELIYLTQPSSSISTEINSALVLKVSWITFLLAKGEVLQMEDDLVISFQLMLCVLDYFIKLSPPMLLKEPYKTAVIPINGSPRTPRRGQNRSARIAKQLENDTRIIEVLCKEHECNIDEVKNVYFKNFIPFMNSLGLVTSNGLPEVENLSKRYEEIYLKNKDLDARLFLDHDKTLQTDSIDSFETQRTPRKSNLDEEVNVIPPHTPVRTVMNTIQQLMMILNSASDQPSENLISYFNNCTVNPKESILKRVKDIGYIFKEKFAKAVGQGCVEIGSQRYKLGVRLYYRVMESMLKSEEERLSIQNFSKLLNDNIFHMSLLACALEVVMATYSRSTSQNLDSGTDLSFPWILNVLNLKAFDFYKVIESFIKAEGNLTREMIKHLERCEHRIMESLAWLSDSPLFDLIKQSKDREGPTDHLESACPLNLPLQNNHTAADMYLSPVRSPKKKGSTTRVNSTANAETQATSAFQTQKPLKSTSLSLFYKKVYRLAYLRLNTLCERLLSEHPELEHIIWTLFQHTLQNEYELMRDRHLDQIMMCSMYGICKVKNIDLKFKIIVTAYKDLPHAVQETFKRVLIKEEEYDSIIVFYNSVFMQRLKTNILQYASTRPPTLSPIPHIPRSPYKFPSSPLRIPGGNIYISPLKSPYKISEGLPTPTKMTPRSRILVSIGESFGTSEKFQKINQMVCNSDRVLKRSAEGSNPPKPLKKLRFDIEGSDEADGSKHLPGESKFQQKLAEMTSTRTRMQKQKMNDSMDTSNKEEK
The assay is described as follows: GST pull-down of S35-labeled in vitro translated protein with GST-RB on glutathione sepharose beads. The method, then: GST-RB and GST were bound to glutathione sepharose beads and incubated with S³⁵-labeled in vitro translated PRMT1, PRMT2, PRMT3, and PRMT4. Co-precipitated labeled PRMTs were analyzed by SDS-PAGE. […] HA-tagged PRMT2 (+) or control vectors (−) were transfected in 293 cells. Cell lysates were immunoprecipitated with rabbit RB antibodies or IgG and followed by Western blot analysis using mouse HA and RB antibodies (upper panel). A Western blot using mouse HA antibodies detects HA-tagged PRMT2 (lower panel).
The crude cell lysate of the GST-fusion proteins was prepared and purified according to the manufacture's protocol (Amersham/Pharmacia). [³⁵S]-methionine-labeled protein was produced by in vitro transcription/translation using the TNT T7-coupled reticulocyte lysate system (Promega). [³⁵S]-methionine-labeled protein and GST-fusion protein bound to glutathione sepharose 4B beads were incubated in 500 μl of HNE buffer (50 mM Hepes, pH 7.8, 150 mM NaCl, 1 mM EDTA, 1 mM DTT, 1% NP40, and 1× protease inhibitor mix (Complete: Roche)) at 4° C. for 1 hour. Beads were washed four times with HNE buffer, and then analyzed on an SDS-PAGE gradient gel (4-15%). […]

Assay [2] addresses T1, GST-RB fusion protein. The assay is described as follows: GST pull-down of S35-labeled in vitro translated protein with GST-RB.

B1: S35-labeled in vitro translated PRMT4 (CARM1) (human) (enzyme, UniProt Q86X55 2-608, looked up)
chain: AAAAAAVGPGAGGAGSAVPGGAGPCATVSVFPGARLLTIGDANGEIQRHAEQQALRLEVRAGPDSAGIALYSHEDVCVFKCSVSRETECSRVGKQSFIITLGCNSVLIQFATPNDFCSFYNILKTCRGHTLERSVFSERTEESSAVQYFQFYGYLSQQQNMMQDYVRTGTYQRAILQNHTDFKDKIVLDVGCGSGILSFFAAQAGARKIYAVEASTMAQHAEVLVKSNNLTDRIVVIPGKVEEVSLPEQVDIIISEPMGYMLFNERMLESYLHAKKYLKPSGNMFPTIGDVHLAPFTDEQLYMEQFTKANFWYQPSFHGVDLSALRGAAVDEYFRQPVVDTFDIRILMAKSVKYTVNFLEAKEGDLHRIEIPFKFHMLHSGLVHGLAFWFDVAFIGSIMTVWLSTAPTEPLTHWYQVRCLFQSPLFAKAGDTLSGTCLLIANKRQSYDISIVAQVDQTGSKSSNLLDLKNPFFRYTGTTPSPPPGSHYTSPSENMWNTGSTYNLSSGMAVAGMPTAYDLSSVIASGSSVGHNNLIPLANTGIVNHTHSRMGSIMSTGIVQGSSGAQGSGGGSTSAHYAVNSQFTMGGPAISMASPMSIPTNTMHYGS
modifications: [35S]-methionine label
Turning to B1, the binding result in assay [1] was “no binding”.

B2: PRMT2(1-95&219-433) (enzyme)
chain: MATSGDCPRSESQGEEPAECSEAGLLQEGVQPEEFVAIADYAATDETQLSFLRGEKILILRQTTADWWWGERAGCCGYIPANHVGKHVDEYDPEDFEFMIESILYARDAWLKEDGVIWPTMAALHLVPCSADKDYRSKVLFWDNAYEFNLSALKSLAVKEFFSKPKYNHILKPEDCLSEPCTILQLDMRTVQISDLETLRGELRFDIRKAGTLHGFTAWFSVHFQSLQEGQPPQVLSTGPFHPTTHWKQTLFMMDDPVPVHTGDVVTGSVVLQRNPVWRRHMSVALSWAVTSRQDPTSQKVGEKVFPIWR
modifications: [35S]-methionine label in the binding assay
notes: the same deletion was expressed from pVR1012 in the U2OS reporter assay; also called Int-del
Regarding B2, the binding result in assay [2] is given as “no binding”.

B3: PRMT2(1-95) (enzyme)
chain: MATSGDCPRSESQGEEPAECSEAGLLQEGVQPEEFVAIADYAATDETQLSFLRGEKILILRQTTADWWWGERAGCCGYIPANHVGKHVDEYDPED
modifications: [35S]-methionine label
As for B3, in assay [2], the binding result is listed as “no binding”.

B4: S35-labeled in vitro translated PRMT3 (human) (enzyme, UniProt O60678 2-531, looked up)
chain: CSLASGATGGRGAVENEEDLPELSDSGDEAAWEDEDDADLPHGKQQTPCLFCNRLFTSAEETFSHCKSEHQFNIDSMVHKHGLEFYGYIKLINFIRLKNPTVEYMNSIYNPVPWEKEEYLKPVLEDDLLLQFDVEDLYEPVSVPFSYPNGLSENTSVVEKLKHMEARALSAEAALARAREDLQKMKQFAQDFVMHTDVRTCSSSTSVIADLQEDEDGVYFSSYGHYGIHEEMLKDKIRTESYRDFIYQNPHIFKDKVVLDVGCGTGILSMFAAKAGAKKVLGVDQSEILYQAMDIIRLNKLEDTITLIKGKIEEVHLPVEKVDVIISEWMGYFLLFESMLDSVLYAKNKYLAKGGSVYPDICTISLVAVSDVNKHADRIAFWDDVYGFKMSCMKKAVIPEAVVEVLDPKTLISEPCGIKHIDCHTTSISDLEFSSDFTLKITRTSMCTAIAGYFDIYFEKNCHNRVVFSTGPQSTKTHWKQTVFLLEKPFSVKAGEALKGKVTVHKNKKDPRSLTVTLTLNNSTQTYGLQ
modifications: [35S]-methionine label
As to B4, the binding result in assay [1] is “no binding”.
